Test results reported in US20210292393A1 (published 2021).

B1: antibody 533 (antibody, V domains shown)
VH: GVQLVESGGVVVQPGGSLRLSCAASGFSFDDYTMHWVRQAPGKGLEWVSLVSWDGGTTYYTDSVKGRFTISRDNSKNSLYLQMNSLRTEDTALYFCAKDSGRIVPAATFDYWGQGTLVTVSS
VL: DIQMTQSSSSLSASVGDRVTITCRASQDISNYLAWFQQKPGKAPKSLIYAASSLQSGVPSKFSGSGSGTDFTLTISSLQPEDFATYYCQQYYTYPLTFGGGTKVEIK
B2: antibody 536 (antibody, V domains shown)
VH: QVQLVESGGGVVQPGRSLRLSCAASGFTFSSYVMHWVRQAPGKGLEWVALISYDGSNKYYADSVKGRFTISRDNSKNTLYLQMNSLRAEDTAVYYCARGGHIRVGRYFDWLISYFDYWGQGTLVTVSS
VL: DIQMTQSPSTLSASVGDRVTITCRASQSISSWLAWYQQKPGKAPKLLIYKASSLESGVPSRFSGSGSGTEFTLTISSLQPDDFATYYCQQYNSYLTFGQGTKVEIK
B3: antibody 522 (antibody, V domains shown)
VH: EVQLVESGGGLVQPGGSLRLSCAASGFNFSSYSMNWVRQAPGKGLEWVSYISSSSSTIYYADSVKGRFTISRDNAKNSLYLQMNSLRDEDTAVYYCARGPEWDIVVVQAENWFDPWGQGTLVTVSS
VL: SYELTQPPSVSVSPGQTARITCSGDALPKQYVYWYQQKPGQAPVLVIYKDSERPSGIPERFSGSSSGTTVTLTISGVQAEDEADYYCQSADSSGTYRGVFGGGTKLTVL
B4: antibody 543 (antibody, V domains shown)
VH: EVQLVESGGGLVQPGRSLRLSCAASGFTFHDYAMHWVRQAPGKGLEWVSGISWNSGSIGYADSVKGRFTISRDNAKNSLYLQMNSLRAEDTALYYCAKDTFGSSSWYRGDSYYYYGMDVWGQGTTVTVSS
VL: QSALTQPASVSGSPGQSITISCTGTSSDVGGYNYVSWYQQHPGKAPKLMIYEVSNRPSGVSNRFSGSKSGNTASLTISGLQAEDEADYYCSSYTSSSTQRYVVFGGGTKLTVL
B5: antibody 537 (antibody, V domains shown)
VH: QVQLQQWGAGLLKPSETLSLTCAVYGGSFSGYYWSWIRQPPGKGLEWIGEINHSGSTNYNPSLKSRVTISVDTSKNQFSLKLSSVTAADTAVYYCARGLYYDMGGGFDYWGQGTLVTVSS
VL: not shown
B6: antibody 547 (antibody, V domains shown)
VH: QVHLVESGGGVVQPGRSLRLSCAASGFALSSYAMHWVRQPPGKGLEWVALISYDGSVKKYADSVKGRITVSGDNSRNTLHLQINSLRADDTAVYYCVRGGVSGPNSFDLWGHGTMVTVSS
VL: DVVLTQSPLSLPVTLGQPASISCRSSQSLEYSVGNTYVNWFQQRPGQSPRRLIYKVSNRDSGVPDRFSGSGSGTDFTLQISRVEADDVGIYYCMQGTHWPVTFGQGTKVEIK
B7: antibody 527 (antibody, V domains shown)
VH: QLQLQESGPGLVKPSETLSLTCTVSGGSISSSSYYWGWIRQPPGKGLEWIGSIYYSGSTYYNPSLKSRVTISVDTSKNQFSLKLSSVTAADTAMYYCASHVVVIASSYWCFDLWGRGTLVTVSS
VL: QSALTQPASVSGSPGQSITISCTGTSSDVGGYNYVSWYQQHPGKAPKLMIYDVSNRPSGVSNRFSGSKSGNTASLTISGLQAEDEADYYCSSYTSISTWVFGGGTKLTVL
B8: antibody 548 (antibody, V domains shown)
VH: QVQLVESGGGVVQPGRSLRLSCAASGFTFSSYAMHWVRQAPGKGLEWVAVISYDGSNKYYADSVKGRFTISRDNSKNTLYLQMNNLRAEDTAVYYCAKSGSGSYLSAFDIWGQGTMVTVSS
VL: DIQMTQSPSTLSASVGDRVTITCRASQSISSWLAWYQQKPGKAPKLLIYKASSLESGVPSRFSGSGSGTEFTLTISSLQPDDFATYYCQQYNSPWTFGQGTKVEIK
B9: antibody 545 (antibody, V domains shown)
VH: QVQLVQSGSELKKPGASVKVSCKASGYTFTSYAMNWVRQAPGQGLEWMGWINTNTGNPTYAQGFTGRFVFSLDTSVSTAYLQISVLKAEDTGVYYCARDHELPNSSSWFGHFEYWGQGTLVTVSS
VL: SYELTQPPSVSVSPGQTARITCSGDALPKQYAYWYQQKAGQAPVLVIYKDSERRSGIPERFSGSSSGTTVTLTISGVQAEDEADYYCQSADSSGTSVVFGGGTKLTVL
B10: antibody 546 (antibody, V domains shown)
VH: QVQLVESGGGVVQPGRSLRLSCAASGFTFSSYGMHWVRQAPGKGLEWVAVIWYDGSNKYYADSVKGRFTISRDNSKNTLYLQMNSLRAEDTAVYYCARNCGGDCVAGDGFDYWGQGTLVTVSS
VL: DIQMTQSPSSLSASVGDRVTITCRASQSISSYLNWYQQKPGKAPNLLIYAASSLQSGVPSRFSGSGSGTDFTLTISSLQPEDFATYYCQQSYSALTWTFGQGTKVEIK
B11: antibody 523 (antibody, V domains shown)
VH: EVQLVESGGVSVQPGGSLRLSCAASGFSFNTYDMHWVRQGTGKGLEWVSGIGTAGDTYYSDSVKGRCTISRDNAKNSLHLLVKSVRAADTAVYYCARGVGGIIDYWGQGTLVTVSS
VL: NFVLSQPHSVSESPGKTVTISCTGNSGSIATKYVQWFQQRPGSAPTTVIYEDNQRPSGVPDRFSGSSDSSSNSASLTISGLKTEDEAHYYCQSYHNRRWVFGGGTKLTVL
B12: antibody 404 (antibody, V domains shown)
VH: QVQLVESGGGVVQPGRSLRLSCAASGFTFSSYGMHWVRQAPGKGLEWVAVIWYDGSNKYYADSVKGRFTISRDNSKNTLYLQMNSLRAEDTAVYYCARLAVDISFDGSDGMDVWGQGTTVTVSS
VL: SYELTQPPSVSVSPGQTARITCSGDALPKKYAYWYQQKSGQAPVLVIYEDSKRPSGIPERFSGSSSGTMATLTISGAQVEDEADYYCYSTDSSGKGVFGTGTKVTVL
B13: antibody 421 (antibody, V domains shown)
VH: QVQLVESGGGVVQPGRSLRLSCAASGFTFSTYAMHWVRQAPGKGLEWVAVISYDGSNKYYADSVKGRFTISRDNSKNTLYLQMNSLRAEDTAVYYCARGYGSGSYYPLYLYWGQGTLVTVSS
VL: not shown
B14: antibody 412 (antibody, V domains shown)
VH: QVQLVQSGAEVKKPGASVKVSCKASGYTFTSYGISWVRQAPGQGLEWMGWISAYNGNTNYAQKLQGRVTMTTDTSTSTAYMELRSLRSDDTAVYYCARVTVEAIFGVVILPLKNWFDPWGQGTLVTVSS
VL: QSVLTQPPSVSGAPGQRVTISCTGSSSNIGAGYDVHWYQQLPGTAPKLLIYGNSNRPSGVPDRFSGSKSGTSASLAITGLQAEDEADYYCQSYDSSLTLYVFGTGTKVTVL
B15: antibody 422 (antibody, V domains shown)
VH: QVQLVQSGSELKKPGASVKVSCKASGYTFTSYAMNWVRQAPGQGLEWMGWINTNTGNPTYAQGFTGRFVFSLDTSVSTTYLQISSLKAEDTAVYYCARVIGVVTYYYYGMDVWGQGTTVTVSS
VL: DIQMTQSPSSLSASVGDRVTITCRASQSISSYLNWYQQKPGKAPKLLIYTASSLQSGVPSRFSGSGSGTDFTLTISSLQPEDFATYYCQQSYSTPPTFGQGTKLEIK
B16: antibody 395 (antibody, V domains shown)
VH: QVQLVQSGSELKKPGASVKLSCQASGYTFSNHAMNWVRQAPGQGLEWMGWINTNTGNPTYAQGFTGRFVFSLDTSVGTAYLHISSLKAEDTAFYYCARASARPGVATNLDFWGQGTLVVVSS
VL: DIQMTQSPSSLSASVGDRVTITCRTSQNIDNYLNWYQQKPGKAPNLLIYAASRLHSGVPSRFSGSGSGTDFTLIISSLQPEDLATYYCQQSYSNPLTFGPGTKVDIR
B17: antibody 396 (antibody, V domains shown)
VH: QVQLQQWGAGLLKPSETLSLTCAVYGGSFSGYYWSWIRQPPGKGLEWIGEIIHSGSTNYNPSLKSRVTISVDTSKNQFSLKLSSVTAADTAVYYSARRTGLLWFREGSYYFDYWGQGTLVTVSS
VL: DIQMTQSPSSLSASVGDRVTITCRASQGIRNDLGWYQQKPGKAPKRLIYAASSLQSGVPSRFSGSGSGTEFTLTISSLQPEDFATYYCLQHNSYPLTFGGGTKVEIK
B18: antibody 423 (antibody, V domains shown)
VH: EVQLVESGGGLIQPGGSLRISCAASGFTVRNNHMSWVRQAPGKGLEWVSVFYRGGTTYYADSVKGRFTISRDDSKNTVDLQMNSLRGEDTAVYYCARGLSVAASGYFDCWGQGTLVTVSS
VL: DIQMTQSPSSVSASVGDTVTITCRANQGISSWLAWYQQVPGKAPELLIYATSTLQSGVPSRFSGSGSGTDFTLTISSLQPEDFATYYCQQANSFPFTFGPGTKVDIK
B19: antibody 392 (antibody, V domains shown)
VH: QVQLQESGPGLVKPSGTLSLTCAVSGGSISSSNWWSWVRQPPGKGLEWIGEIYHSGSTNYNPSLKSRVTISVDKSKNQFSLKLSSVTAADTAVYYCARGWRATLYGMDVWGQGTTVTVSS
VL: QSALTQPASVSGSPGQSITISCTGTSSDVGSYNLVSWYQQHPGKAPKLMIYEVSKRPSGVSNRFSGSKSGNTASLTISGLQAEDEADYYCCSYAGSSTWVFGGGTKLTVL
B20: antibody 405 (antibody, V domains shown)
VH: not shown
VL: QSALTQPRSVSGSPGQSVTISCTGTSSDVGGYNYVSWYQQHPGKAPKLMIYDVSKRPSGVPDRFSGSKSGNTASLTISGLQAEDEADYYCCSYAGSYNVVFGGGTKLTVL
B21: antibody 409 (antibody, V domains shown)
VH: QVTLRESGPALVKPTQTLTLTCTFSGFSLSTSGMCVSWIRQPPGKALEWLALIDWDDDKYYSTSLKTRLTISKDTSKNQVVLTMTNMDPVDTATYYCARTTYYYVSGRRAEFDPWGQGTLVTVSS
VL: NFMLTQPHSVSESPGKTVTISCTGSSGSIASNYVQWYQQRPGSAPTTVIYEDNQRPSGVPDRFSGSIDSSSNSASLTISGLKTEDEADYYCQSYDSSNQGVFGGGTKLTVL
B22: antibody 385 (antibody, V domains shown)
VH: QVQLVESGGGVVQPGRSLRLSCAASGFTFSSYAIHWVRQAPGKGLEWVAVISYDGSNKYYADSVKGRFTISRDNSKNTLYLQMNSLRAEDTAVYYCARPRSGSYWGAFDIWGQGTMVTVSS
VL: QSVLTQPPSVSGAPGQRVTISCTGSSSNIGARYDVHWYQQLPGTAPKLLIYGNSNRPSGVPDRFSGSKSGTSASLAITGLQAEDEADYYCQSYDSSLRGVFGGGTKLTVL
B23: antibody 407 (antibody, V domains shown)
VH: QVQLVESGGGVVQPGRSLRLSCAASGFTFSSYGMHWVRQAPGKGLEWVAVISYDGSNKYYADSVKGRFTISRDNSKNTLYLQMNSLRAEDTAVYYCAKCGWDYDFWVGQGYGMDVWGQGTTVTVSS
VL: not shown

What follows are binders tested against SARS-CoV-2 full length spike protein (wild-type), conjugated to optically encoded beads (SARS-CoV-2, UniProt P0DTC2 14-1208).
B1 was tested, and the “median fluorescence fold over isotype” value was 23.4 fold over isotype. B2 was tested, and the “median fluorescence fold over isotype” value was 643 fold over isotype. With B3 the “median fluorescence fold over isotype” value was 433 fold over isotype. With B4 the “median fluorescence fold over isotype” value was 802 fold over isotype. With B5 the “median fluorescence fold over isotype” value was 787 fold over isotype. In the case of B6, the “median fluorescence fold over isotype” value is reported as 606 fold over isotype. With B7 the “median fluorescence fold over isotype” value was 148 fold over isotype. In the case of B8, the “median fluorescence fold over isotype” value is reported as 642 fold over isotype. B9 was tested, and the “median fluorescence fold over isotype” value was 939 fold over isotype. In the case of B10, the “median fluorescence fold over isotype” value is reported as 1160 fold over isotype. For B11, the “median fluorescence fold over isotype” value was 30.8 fold over isotype.

These binders were tested against SARS-CoV spike protein (full length spike, trimeric, conjugated to beads) (SARS-CoV, UniProt P59594 14-1190).
In the case of B12, the “median fluorescence fold over isotype control” value is reported as 1.04 fold over isotype control. B13 was tested, and the “median fluorescence fold over isotype control” value was 1.19 fold over isotype control. For B14, the “median fluorescence fold over isotype control” value was 1.09 fold over isotype control. With B15 the “median fluorescence fold over isotype control” value was 1.19 fold over isotype control. In the case of B16, the “median fluorescence fold over isotype control” value is reported as 1.16 fold over isotype control. In the case of B17, the “median fluorescence fold over isotype control” value is reported as 1.36 fold over isotype control. B18 was tested, and the “median fluorescence fold over isotype control” value was 1.23 fold over isotype control. B19 was tested, and the “median fluorescence fold over isotype control” value was 1.08 fold over isotype control. With B20 the “median fluorescence fold over isotype control” value was 80.9 fold over isotype control. With B21 the “median fluorescence fold over isotype control” value was 1.03 fold over isotype control. For B22, the “median fluorescence fold over isotype control” value was 59.6 fold over isotype control. With B23 the “median fluorescence fold over isotype control” value was 1.07 fold over isotype control.
